Biological target: His-tagged T-cell immunoreceptor with Ig and ITIM domains (TIGIT) (UniProt Q495A1)
Experiment: biolayer interferometry, His-tagged TIGIT

Kd: 3.12 nM
B1: anti-TIGIT antibody TIG1 (antibody, from another filing, V domains shown)
VH: DVQLVESGGGLVQPGGSRKLSCAASGFTFSNFGMHWVRQAPEKGLEWVAFISSGSSSIYYADTVKGRFTISRDNPKNTLFLQMTSLRSEDTAMYYCARMRLDYYAMDYWGQGTSVTVSS
VL: DVQITQSPSYLAASPGETITINCRASKSISKYLAWYQEKPGKTNKLLIYSGSTLQSGIPSRFSGSGSGTDFTLTISSLEPEDFAMYYCQQHNEYPWTFGGGTKLEIK
